Values quoted from earlier work in paper PMC8027070.
Read-outs that look alike come from different tables or passages of the source. Each block holds one substance with its values, some of them ahead of it.

Tests used:
VIP (Homo sapiens) [1] = target: VIP (Homo sapiens) (UniProt P01282)
PACAP (Homo sapiens) [2] = target: PACAP (Homo sapiens) (UniProt P18509)
VIP (Homo sapiens) [3] = target: VIP (Homo sapiens) (UniProt P01282); remark: listed apart in the source
PACAP (Homo sapiens) [4] = target: PACAP (Homo sapiens) (UniProt P18509); remark: listed apart in the source
VIP (Homo sapiens) [5] = target: VIP (Homo sapiens) (UniProt P01282); remark: listed apart in the source
PACAP (Homo sapiens) [6] = target: PACAP (Homo sapiens) (UniProt P18509); remark: listed apart in the source

UniProt P18509, sequence (P18509 82-129): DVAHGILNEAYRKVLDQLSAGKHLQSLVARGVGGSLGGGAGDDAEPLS
UniProt P01282, sequence (P01282 125-152): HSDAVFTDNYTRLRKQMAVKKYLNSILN

Kd (VIP (Homo sapiens) [1]): 1 nM
Kd (PACAP (Homo sapiens) [2]): 1 nM
Substance: VPAC1 receptor (from UniProt P32241)

Kd (VIP (Homo sapiens) [3]): > 500 nM
Kd (PACAP (Homo sapiens) [4]): 0.5 nM
Substance: PAC1 receptor (from UniProt P41586)

Kd (VIP (Homo sapiens) [5]): 1 nM
Kd (PACAP (Homo sapiens) [6]): 1 nM
Substance: VPAC2 receptor (from UniProt P41587)
